Assay results reported in the supplement of paper PMC7125110.
± gives the standard error. Fewer inactive variants are shown than the library holds.

B1: glmS ribozyme (parent)
chain: AUAAAAGCGCCAGAACUACAGAAAUGUAGUUGACGAGGAGGAGGUUUAUCGAAUUUUCGGCGGAUGCCUCCAAA

Variants of: B1
Assay: self-cleavage kobs at 2500 uM GlcN6P; higher = faster cleavage; RNA array
Conditions: with glucosamine-6-phosphate
In short: (§1)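 Tiles bearing barcoded ribozyme variants, transcribed in situ by E. coli RNA polymerase on sequenced MiSeq chips, were imaged over ~14 h at 37 °C using a hybridised Cy3 probe. Glucosamine-6-phosphate was supplied at 40 μM to 10 mM in HEPES/KCl/Mg(OAc)2 buffer. kobs came from one- or two-exponential decay fits to normalised per-tile medians, and weighted Michaelis–Menten fits then provided kcat and KM.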

| Variant | self-cleavage kobs at 2500 uM GlcN6P [s⁻¹] |
| --- | --- |
| A6U G7C A15U G29C G38A G44A C61A | < 1e-05 |
| A6U U45G A48U | < 1e-05 |
| G43U U47C G63U | < 1e-05 |
| A6U C10A U49C C70G C71G | 0.00019 ± 8.2e-05 |
| A42C G43U U57A | < 1e-05 |
| A6G U55A U57G C61A | < 1e-05 |
| A6G G60U G66U | < 1e-05 |
| G41U A42U C61A | < 1e-05 |
| A6U G37C A64G | < 1e-05 |
| G7C A15C G32U C58U C61U | < 1e-05 |
| G43A G62U C67A | < 1e-05 |
| U46A C58A C61U C71G | < 1e-05 |
| A53G U57C | 0.000159 ± 4.1e-05 |
| G44A U45C C61A | < 1e-05 |
| A6G G9C G63C A64U | < 1e-05 |
| A6U C58G C70A | 0.00016 ± 5.2e-05 |
| A6G A33C U46G | < 1e-05 |
| A6G A33U C58A | < 1e-05 |
| U45G A52C U55C C70G | < 1e-05 |
| G7A G29C G38A G44C | < 1e-05 |
| G41C G59U C70G | 0.000118 ± 3.1e-05 |
| A6G A15C G63A | < 1e-05 |
| U54A U55G C67U | 0.000903 ± 0.00028 |

Variants of: B1
Assay: self-cleavage kobs at 10000 uM GlcN6P; higher = faster cleavage; RNA array
Conditions: with glucosamine-6-phosphate
In short: as §1

| Variant | self-cleavage kobs at 10000 uM GlcN6P [s⁻¹] |
| --- | --- |
| A6U G7C A15U G29C G38A G44A C61A | < 1e-05 |
| A42C G43U U57A | < 1e-05 |
| G7C A15C G32U C58U C61U | < 1e-05 |
| A53G U57C | 0.0005 ± 8.7e-05 |
| A6G A33C U46G | < 1e-05 |
| G7A G29C G38A G44C | < 1e-05 |
| G41C G59U C70G | 0.000122 ± 2.1e-05 |

Variants of: B1
Assay: self-cleavage kobs at 640 uM GlcN6P; higher = faster cleavage; RNA array
Conditions: with glucosamine-6-phosphate
In short: as §1

| Variant | self-cleavage kobs at 640 uM GlcN6P [s⁻¹] |
| --- | --- |
| G62A G63C C70A C71U | 5.14e-05 ± 2.3e-05 |
| G43U U47C G63U | < 1e-05 |
| A42C G43U U57A | < 1e-05 |
| C50G G63C C67U | 0.000103 ± 4.4e-05 |
| U45C U46G U57A | < 1e-05 |
| G43U G51C G59C G62U C68U | < 1e-05 |
| G43C C61U G62A | < 1e-05 |
| G41U A42U C61A | < 1e-05 |
| U45C G63U C67U | < 1e-05 |
| G51U G63C G66U U69A C70A | < 1e-05 |
| G43A G62U C67A | < 1e-05 |
| U46A C58A C61U C71G | < 1e-05 |
| A53G U57C | 0.000146 ± 4.6e-05 |
| G44A U45C C61A | < 1e-05 |
| A52U C70G C71A | 8.24e-05 ± 2.8e-05 |
| U45G A52C U55C C70G | < 1e-05 |
| G44A C61A G66A | < 1e-05 |
| U55A C58U C61A C67A | 8.67e-05 ± 2.1e-05 |
| G41C G59U C70G | 3.61e-05 ± 1.7e-05 |
| U54A U55G C67U | 0.000411 ± 0.00015 |
